Results reported in article PMC6241527 (Science (New York, N.Y.), 2018).

Experiments:
[1] = molecular target: T1, H1 hemagglutinin (A/Brisbane/59/07) (Influenza A virus …); assay: cell-based or functional assay
[2] = molecular target: T1, H1 hemagglutinin (A/Brisbane/59/07)
[3] = molecular target: T2, H1 hemagglutinin (A/Solomon Islands/3/06) (influenza A virus (A/Solomon …)); assay: crystal structure
T2 chain 1: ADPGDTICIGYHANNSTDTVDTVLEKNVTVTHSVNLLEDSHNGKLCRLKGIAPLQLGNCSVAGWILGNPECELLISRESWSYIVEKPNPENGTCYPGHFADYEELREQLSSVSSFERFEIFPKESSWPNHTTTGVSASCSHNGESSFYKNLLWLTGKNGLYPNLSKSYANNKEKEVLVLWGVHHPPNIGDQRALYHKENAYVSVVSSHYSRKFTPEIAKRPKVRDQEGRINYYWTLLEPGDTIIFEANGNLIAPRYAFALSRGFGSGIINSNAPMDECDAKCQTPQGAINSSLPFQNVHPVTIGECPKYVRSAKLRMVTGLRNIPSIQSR
T2 chain 2: not shown

[4] = molecular target: T3, influenza B hemagglutinin (B/Brisbane/60/08) (influenza B virus (B/Brisbane/60/08), N-linked glycans at N301 and N330 (HA1)); assay: crystal structure
T3 chain 1: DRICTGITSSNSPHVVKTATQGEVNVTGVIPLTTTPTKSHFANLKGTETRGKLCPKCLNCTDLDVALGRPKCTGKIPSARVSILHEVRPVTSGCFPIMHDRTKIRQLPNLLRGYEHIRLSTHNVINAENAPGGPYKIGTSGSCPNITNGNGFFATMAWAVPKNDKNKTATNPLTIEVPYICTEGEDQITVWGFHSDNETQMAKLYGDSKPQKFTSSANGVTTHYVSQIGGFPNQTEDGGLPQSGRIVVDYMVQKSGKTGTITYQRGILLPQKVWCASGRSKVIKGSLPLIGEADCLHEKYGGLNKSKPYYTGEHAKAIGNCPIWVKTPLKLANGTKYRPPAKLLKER
T3 chain 2: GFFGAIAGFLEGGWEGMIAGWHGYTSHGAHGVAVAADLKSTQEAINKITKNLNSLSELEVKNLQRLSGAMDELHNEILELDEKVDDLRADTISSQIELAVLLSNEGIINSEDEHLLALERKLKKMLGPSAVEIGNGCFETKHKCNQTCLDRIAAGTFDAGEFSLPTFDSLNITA

B1: single-domain antibody SD36 (VHH)
VHH: EVQLVESGGGLVQAGGSLKLSCAASGRTYAMGWFRQAPGKEREFVAHINALGTRTYYSDSVKGRFTISRDNAKNTEYLEMNNLKPEDTAVYYCTAQGQWRAAPVAVAAEYEFWGQGTQVTVSS
In the case of B1, the “in vitro neutralisation of the corresponding virus (A/Brisbane/59/07), IC50” value [1] is reported as greater than 1000 nM and the Kd [2] is reported as 290 nM.

B2: single-domain antibody SD38 (VHH)
VHH: EVQLVESGGGLVQPGGSLRLSCAVSISIFDIYAMDWYRQAPGKQRDLVATSFRDGSTNYADSVKGRFTISRDNAKNTLYLQMNSLKPEDTAVYLCHVSLYRDPLGVAGGMGVYWGKGALVTVSS
In the case of B2, the “stoichiometry N” value [3] is reported as 3 sdAbs per HA trimer.

B3: single-domain antibody SD83 (VHH)
VHH: EVQLVESGGGLVQPGGSLRLSCAATGFTLENKAIGWFRQTPGSEREGVLCISKSGSWTYYTDSMRGRFTISRDNAENTVYLQMDSLKPEDTAVYYCATTTAGGGLCWDGTTFSRLASSWGQGTQVTVSS
For B3, the “stoichiometry N” value [4] was 3 sdAbs per HA trimer.
